From patent US20240182561A1 (Regeneron, published 2024)

What was measured:
[1] = target: T1, human CACNG1 expressed on cells (human, UniProt Q06432 1-222); test: cell-based or functional assay
[2] = target: T1, human CACNG1 expressed on cells; test: cell-based or functional assay; remark: listed apart in the source
[3] = target: T2, mouse CACNG1 expressed on cells (mouse, UniProt O70578 1-223); test: biosensor conjugate imaging (AF647), 6.7 nM, C2C12 mouse myotubes
T2 construct: whole, on cells; Transfected in HEK293/mCACNG1; endogenous in C2C12 myotubes and wildtype mouse myofibers; Each row names the cell type under assay; also called mCACNG1; HEK293/mCACNG1
T2 sequence (looked up): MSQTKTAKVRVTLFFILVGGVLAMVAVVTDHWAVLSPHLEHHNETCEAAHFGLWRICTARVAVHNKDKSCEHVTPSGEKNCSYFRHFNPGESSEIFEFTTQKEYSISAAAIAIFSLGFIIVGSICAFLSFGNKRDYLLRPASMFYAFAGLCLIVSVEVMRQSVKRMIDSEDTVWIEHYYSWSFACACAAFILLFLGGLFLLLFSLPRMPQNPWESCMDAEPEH
Procedure: The growth media was changed to MyoTonic Differentiation Media (Cook Myosite Cat #MD-5555) and replaced every 2 days. C2C12 mouse myoblasts were maintained in DMEM with 10% FBS and 1% penicillin-streptomycin supplement and grown in a 37° C. incubator with 5% CO₂. […] After 24 hours, growth media was replaced with differentiation media (DMEM with 2% horse serum) and placed in a 37° C. incubator with 7.5% CO₂.

[4] = target: T1, human CACNG1 expressed on cells; test: cell-based or functional assay; remark: listed apart in the source

T1 sequence (Q06432 whole entry): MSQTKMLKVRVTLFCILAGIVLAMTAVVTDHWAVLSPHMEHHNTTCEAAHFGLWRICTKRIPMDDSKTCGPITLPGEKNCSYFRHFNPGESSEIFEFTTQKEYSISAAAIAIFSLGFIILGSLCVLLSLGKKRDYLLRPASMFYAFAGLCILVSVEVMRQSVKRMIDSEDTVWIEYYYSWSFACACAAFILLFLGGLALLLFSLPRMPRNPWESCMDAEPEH

B1: REGN14570 (antibody, human IgG1, kappa, N297Q)
heavy: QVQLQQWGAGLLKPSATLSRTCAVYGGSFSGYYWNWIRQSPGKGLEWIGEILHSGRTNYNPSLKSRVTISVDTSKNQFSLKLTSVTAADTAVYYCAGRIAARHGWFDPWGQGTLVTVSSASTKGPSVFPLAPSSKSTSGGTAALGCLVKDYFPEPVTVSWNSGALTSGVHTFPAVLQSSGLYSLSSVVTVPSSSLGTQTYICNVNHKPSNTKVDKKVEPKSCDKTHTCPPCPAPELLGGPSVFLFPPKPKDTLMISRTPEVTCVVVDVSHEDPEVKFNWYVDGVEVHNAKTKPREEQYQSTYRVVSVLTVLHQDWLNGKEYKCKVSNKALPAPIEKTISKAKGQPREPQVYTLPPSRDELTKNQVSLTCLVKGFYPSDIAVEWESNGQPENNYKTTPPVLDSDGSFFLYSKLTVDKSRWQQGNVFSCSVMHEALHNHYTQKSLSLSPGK
light: DIQMTQSPSSVSTSVGDRVTISCRASQDIRKWLAWYQQKPGKAPKLLIYATSSLQSGVPSRFSGSGSGTDFTLTISSLQPEDFATYFCQQANSFPFTFGQGTKLEIKRTVAAPSVFIFPPSDEQLKSGTASVVCLLNNFYPREAKVQWKVDNALQSGNSQESVTEQDSKDSTYSLSSTLTLSKADYEKHKVYACEVTHQGLSSPVTKSFNRGEC
modifications: conjugated to the M378-Biosensor probe (Example 15) or to budesonide linker-payload M404-M3123, DAR 4.1 (Example 14); attachment residues not stated for these lots
notes: hIgG1 N297Q; Tested only as conjugates; also called REGN14570-M378-Biosensor; REGN14570-M404-M3123
Q: Which results are given for B1?
A: EC50 of androgen receptor luciferase reporter activation (RLU) by the DHT conjugate REGN14570-M3004 in hCACNG1.AR.Luc LNCaP cells, 48 hours; concentration adjusted for DAR [1]: 5.83 nM; EC50 of androgen receptor luciferase reporter activation (RLU) by the DHT conjugate REGN14570-M3004 in hCACNG1.AR.Luc LNCaP cells, 72 hours; concentration adjusted for DAR [2]: 6.65 nM; binding result [3]: binds; EC50 of androgen receptor luciferase reporter activation (RLU) by the DHT conjugate REGN14570-M3004 in hCACNG1.AR.Luc LNCaP cells, 24 hours; concentration adjusted for DAR [4]: 2 nM
